One block for each substance: values may come before it.
Assays:
[1] = target: actin from rabbit skeletal muscle (rabbit) (UniProt P68135)
[2] = target: (Ig32)2-(R3^IVVI)-(Ig32)2 polyprotein, talin R3 domain with the IVVI mutation; assay: magnetic tweezers; conditions: parent: est. 9 s, read off a plot
[3] = target: (Ig32)2-(R3^IVVI)-(Ig32)2 polyprotein, talin R3 domain with the IVVI mutation; assay: single-molecule magnetic tweezers; talin R3 polyprotein tethered between glass and bead; vinculin in solution (20 nM FLV); constant higher forces (12.5 pN, 15 pN; above ~10 pN), reversible binding and unbinding steps; unbinding rates against force fitted to the Bell-Evans model; PBS with 10 mM ascorbic acid, pH 7.3
[4] = target: (Ig32)2-(R3^IVVI)-(Ig32)2 polyprotein, talin R3 domain with the IVVI mutation; assay: single-molecule magnetic tweezers; talin R3 polyprotein tethered between glass and bead; vinculin allowed to bind at 8.5 pN for a variable time, then a 40 pN pulse to force dissociation; unbinding times at 40 pN (square-root histogram); PBS with 10 mM ascorbic acid, pH 7.3
[5] = target: (Ig32)2-(R3^IVVI)-(Ig32)2 polyprotein, talin R3 domain with the IVVI mutation; assay: single-molecule magnetic tweezers; talin R3 polyprotein tethered between glass (HaloTag) and streptavidin-coated bead (biotinylated AviTag); vinculin in solution (20 nM FLV); constant low force (~8.5 pN, up to ~9-10 pN); PBS with 10 mM ascorbic acid, pH 7.3; Kd from the paper's kinetic model

full-length human vinculin, wild type, sequence (P18206 other isoform, or with tags, fused parts or gaps): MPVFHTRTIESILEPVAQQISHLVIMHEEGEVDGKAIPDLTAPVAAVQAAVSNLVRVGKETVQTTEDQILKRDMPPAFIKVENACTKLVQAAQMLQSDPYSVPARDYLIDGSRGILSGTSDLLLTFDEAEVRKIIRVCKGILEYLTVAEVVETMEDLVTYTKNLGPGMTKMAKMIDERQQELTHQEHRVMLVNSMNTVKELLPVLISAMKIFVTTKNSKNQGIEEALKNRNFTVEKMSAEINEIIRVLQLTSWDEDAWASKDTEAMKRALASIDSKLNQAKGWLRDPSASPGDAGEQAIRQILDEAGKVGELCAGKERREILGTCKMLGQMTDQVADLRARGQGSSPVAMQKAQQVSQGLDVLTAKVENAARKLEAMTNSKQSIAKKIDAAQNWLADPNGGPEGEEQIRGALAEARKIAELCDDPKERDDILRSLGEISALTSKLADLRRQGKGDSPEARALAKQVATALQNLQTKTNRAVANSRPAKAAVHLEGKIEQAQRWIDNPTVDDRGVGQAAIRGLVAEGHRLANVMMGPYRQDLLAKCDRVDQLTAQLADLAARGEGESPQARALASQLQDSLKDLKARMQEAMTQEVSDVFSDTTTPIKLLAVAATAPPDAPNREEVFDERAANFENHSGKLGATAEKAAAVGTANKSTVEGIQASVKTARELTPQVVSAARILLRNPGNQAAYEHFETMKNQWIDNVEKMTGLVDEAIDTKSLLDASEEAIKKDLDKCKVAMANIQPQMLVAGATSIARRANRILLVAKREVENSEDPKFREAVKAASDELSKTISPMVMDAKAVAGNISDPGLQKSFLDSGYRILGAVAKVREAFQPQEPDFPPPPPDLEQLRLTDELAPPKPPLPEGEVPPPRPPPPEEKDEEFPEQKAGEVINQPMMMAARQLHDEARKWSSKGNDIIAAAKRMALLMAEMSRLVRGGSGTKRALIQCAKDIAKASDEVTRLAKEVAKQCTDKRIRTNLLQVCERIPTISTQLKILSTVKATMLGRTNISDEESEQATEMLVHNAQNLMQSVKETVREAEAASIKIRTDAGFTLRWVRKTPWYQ

ratio of bundled actin of 5M against that of the 4M variant, TIRF microscopy, no talin-VBS1 [1]: 1.4 fold over 4M
Substance: full-length human vinculin K944A-R945A-D1013A-E1015A-E986A (5M) (from UniProt P18206-2 1-1066) (natural protein)

other: average unbinding time at 40 pN [2]: 20 s
Substance: full-length human vinculin, wild type (from UniProt P18206-2) T12

Kd, forces above ~10 pN [3]: 5 nM
k0, intrinsic off-rate (Bell-Evans fit of the unbinding rates, zero force) [3]: 0.0066 s⁻¹
unbinding rate of Fig. 1G extrapolated to ~8.5 pN [3]: 0.01 s⁻¹
timescale of maturation from the weak to the stable bound state [4]: 37 s
unbinding time at 40 pN, stronger binding mode (t2) [4]: 7.4 s
unbinding time at 40 pN, weak binding mode (t1) [4]: 0.4 s
Kd, initial bound state, low forces (up to ~9-10 pN) [5]: 0.2 nM
Kd, mature bound state, low forces (up to ~9-10 pN) [5]: 4 pM
timescale of unbinding at ~8.5 pN [5]: 1 hour
Substance: full-length human vinculin, wild type (from UniProt P18206-2 1-1066) (natural protein)

Source: article PMC10354202
